Experimental data reported in paper PMC314469, “Protein Interaction Networks by Proteome Peptide Scanning” (PLoS Biology, 2004).

T1: Boi2 SH3 (BOI2_YEAST), P39969
T1 chain: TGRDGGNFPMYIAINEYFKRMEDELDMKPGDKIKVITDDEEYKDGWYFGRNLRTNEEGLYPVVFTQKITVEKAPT

T2: Yfr024 SH3 (LSB3_YEAST), P43603
T2 chain: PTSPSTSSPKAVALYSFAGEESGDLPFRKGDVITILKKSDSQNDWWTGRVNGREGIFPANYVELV

T3: Boi1 SH3 (BOI1_YEAST), P38041
T3 chain: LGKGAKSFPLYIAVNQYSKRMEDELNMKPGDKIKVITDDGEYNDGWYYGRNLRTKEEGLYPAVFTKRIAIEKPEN

T4: Rvs167 SH3 (RV167_YEAST), P39743
T4 chain: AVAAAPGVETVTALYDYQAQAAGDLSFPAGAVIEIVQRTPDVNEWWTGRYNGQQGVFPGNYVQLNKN

T5: Yhr016c SH3 (YSC84_YEAST), P32793
T5 chain: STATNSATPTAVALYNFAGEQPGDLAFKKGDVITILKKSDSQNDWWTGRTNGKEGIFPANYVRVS


Experiments:
Experiment in all cases: SPOT array
[1] = target: T1, Boi2 SH3 (BOI2_YEAST), P39969
[2] = target: T2, Yfr024 SH3 (LSB3_YEAST), P43603
[3] = target: T3, Boi1 SH3 (BOI1_YEAST), P38041
[4] = target: T4, Rvs167 SH3 (RV167_YEAST), P39743
[5] = target: T5, Yhr016c SH3 (YSC84_YEAST), P32793

Row | Binder | normalised SPOT signal, Boehringer light units (BLU); mean over the file's lines of this peptide [1] | normalised SPOT signal, Boehringer light units (BLU); mean over the file's lines of this peptide [2] | normalised SPOT signal, Boehringer light units (BLU); mean over the file's lines of this peptide [3] | normalised SPOT signal, Boehringer light units (BLU); mean over the file's lines of this peptide [4] | normalised SPOT signal, Boehringer light units (BLU); mean over the file's lines of this peptide [5]
1 | LRRPIFPGRDYRHQ [YBL016W 218-231] | 234 | 8010 | 825 | 947 | 1090
2 | LWIPDDPSKARFLS [YJR152W 267-280] | 25.2 | 561 | 63.1 | 36.6 | 200
3 | LTSPKNPIKSVTKF [YDR172W 569-582] | 25.9 | 227 | 547 | 96.1 | 40.3
4 | LVQPNVPEKHNMST [YHL002W 144-157] | 48.3 | 94.6 | 52.4 | 44.1 | 107
5 | LSTPSAPAKINNYS [YDR109C 605-618] | 37.9 | 174 | 18.3 | 30.6 | 144
6 | LVQPVVPDKVFSFR [YER036C 368-381] | 52 | 311 | 124 | 63.5 | 370
7 | LRSPQNPNRMTAVI [YPL115C 235-248] | 49 | 1210 | 55.6 | 20.7 | 155
8 | LTSPFEPPKPKTKH [YJR064W 272-285] | 33.7 | 82.2 | 188 | 8.1 | 149
9 | LSLPRLPNKHHWPL [YAR068W 116-129] | 44.9 | 27100 | 197 | 252 | 2000
10 | LSSPSLPPKVNATN [YEL042W 325-338] | 22 | 3210 | 113 | 34.7 | 92.2
11 | LRSPNTPRRLRKTL [YDR545W 312-325] | 322 | 21100 | 236 | 2540 | 3240
12 | MALPRTPLKTSTEE [YCL009C 276-289] | 101 | 1130 | 100 | 338 | 280
13 | LTLPFGPVKSIWLS [YGR227W 189-202] | 41.5 | 36.6 | 5.9 | 17.2 | 297
14 | LSKPSKPLKEIRFD [YAR003W 101-114] | 63 | 586 | 233 | 82.7 | 227
15 | LRKPSAPKRMSSIS [YMR086W 52-65] | 77.6 | 2940 | 119 | 276 | 270
16 | LSSPNVPGKPQVAY [YKL216W 131-144] | 43.1 | 201 | 67.9 | 1.5 | 77.3
17 | LVTPEEPAKNKSER [YDL129W 13-26] | 74.6 | 49.1 | 126 | 78.8 | 69.6
18 | LWQPVDPSREDLVI [YLR301W 128-141] | 51.5 | 179 | 49.2 | 0.8 | 139
19 | LYKPGMPPRPHFIT [YNL045W 494-507] | 60.6 | 899 | 25.6 | 34.7 | 326
20 | LRLPEIPPKGDFDV [YFL036W 1327-1340] | 78.1 | 322 | 1.5 | 28.8 | 124
21 | MAAPPVPPKQSQED [YPL084W 790-803] | 40.6 | 4570 | 84.2 | 52.4 | 279
22 | LVIPSTPSKKSKYS [YOR315W 23-36] | 37.5 | 627 | 94.8 | 32.2 | 95.7
